Consider five molecules from article PMC4442312 (eLife, 2015).

Ends that are not written are not given here. Me3 = tri-methylated lysine; Me2 = di-methylated lysine

For one assay, the target named is T1, T7-ORCA (full-length) (human, UniProt Q9UFC0 1-647).
T1 construct: ORCA/LRWD1, full length; also called T7-tagged ORCA; full-length T7-ORCA; source: U2OS, transiently transfected, in lysate
T1 sequence (looked up): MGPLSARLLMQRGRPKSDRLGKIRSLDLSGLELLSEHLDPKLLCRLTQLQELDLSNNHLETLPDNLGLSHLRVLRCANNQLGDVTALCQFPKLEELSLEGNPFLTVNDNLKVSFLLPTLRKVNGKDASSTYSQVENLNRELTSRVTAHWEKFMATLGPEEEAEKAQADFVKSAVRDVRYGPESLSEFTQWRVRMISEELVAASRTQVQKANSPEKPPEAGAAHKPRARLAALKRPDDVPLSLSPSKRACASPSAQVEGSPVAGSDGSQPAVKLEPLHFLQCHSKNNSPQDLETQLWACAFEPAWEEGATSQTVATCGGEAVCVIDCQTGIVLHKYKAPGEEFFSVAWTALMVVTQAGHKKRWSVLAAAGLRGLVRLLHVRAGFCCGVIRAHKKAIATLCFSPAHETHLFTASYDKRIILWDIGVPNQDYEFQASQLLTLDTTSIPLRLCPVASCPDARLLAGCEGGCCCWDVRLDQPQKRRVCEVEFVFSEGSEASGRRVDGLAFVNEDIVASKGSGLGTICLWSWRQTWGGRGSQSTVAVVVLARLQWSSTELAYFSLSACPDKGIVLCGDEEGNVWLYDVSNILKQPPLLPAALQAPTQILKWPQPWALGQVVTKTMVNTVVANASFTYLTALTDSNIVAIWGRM
Briefly: single-molecule pull-down (SiMPull); biotinylated T7 antibody on NeutrAvidin/PEG quartz slides; U2OS lysates co-expressing T7-ORCA and one YFP protein; TIRF, YFP photobleaching steps; biotinylated HA antibody as control. The note with it: partners not purified.

Another assay deals with T2, His-ORCA (baculovirus) (human, UniProt Q9UFC0 1-647).
T2 construct: ORCA/LRWD1 in pFastBac HT-B; also called purified His-tagged-ORCA; baculovirally purified His-ORCA; source: Hi5 insect cells (baculovirus), nuclear extract, 45% ammonium sulfate precipitation; called 'baculovirally purified'
T2 sequence (looked up): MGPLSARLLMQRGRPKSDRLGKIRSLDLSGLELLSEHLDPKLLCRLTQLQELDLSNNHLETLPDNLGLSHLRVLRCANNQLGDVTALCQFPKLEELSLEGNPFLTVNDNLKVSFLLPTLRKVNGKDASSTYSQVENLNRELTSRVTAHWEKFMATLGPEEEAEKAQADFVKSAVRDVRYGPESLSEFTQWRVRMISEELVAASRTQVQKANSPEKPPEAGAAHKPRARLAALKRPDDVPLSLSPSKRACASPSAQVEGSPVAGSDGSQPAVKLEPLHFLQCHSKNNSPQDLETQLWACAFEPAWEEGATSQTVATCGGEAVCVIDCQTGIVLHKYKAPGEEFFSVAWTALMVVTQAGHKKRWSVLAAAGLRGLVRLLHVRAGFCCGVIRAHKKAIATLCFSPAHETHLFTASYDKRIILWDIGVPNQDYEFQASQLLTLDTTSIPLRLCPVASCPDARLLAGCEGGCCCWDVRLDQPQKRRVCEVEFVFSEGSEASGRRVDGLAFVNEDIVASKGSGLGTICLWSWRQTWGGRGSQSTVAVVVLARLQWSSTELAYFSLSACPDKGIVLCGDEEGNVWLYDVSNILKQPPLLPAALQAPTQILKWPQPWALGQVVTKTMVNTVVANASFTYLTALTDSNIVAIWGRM
Briefly: pull-down; H3 (1-15) peptides coupled to SulphoLink (iodoalkyl agarose) resin, incubated with baculovirally purified His-ORCA 2 hr at RT in PK 150 buffer (150 mM KCl, 0.02% NP-40); immunoblot. The note with it: both partners purified. In general terms: In western blotting, separated proteins are transferred to a membrane and probed.

B1: YFP-ORC1 (natural protein, UniProt Q13415 1-861, looked up)
chain: MAHYPTRLKTRKTYSWVGRPLLDRKLHYQTYREMCVKTEGCSTEIHIQIGQFVLIEGDDDENPYVAKLLELFEDDSDPPPKKRARVQWFVRFCEVPACKRHLLGRKPGAQEIFWYDYPACDSNINAETIIGLVRVIPLAPKDVVPTNLKNEKTLFVKLSWNEKKFRPLSSELFAELNKPQESAAKCQKPVRAKSKSAESPSWTPAEHVAKRIESRHSASKSRQTPTHPLTPRARKRLELGNLGNPQMSQQTSCASLDSPGRIKRKVAFSEITSPSKRSQPDKLQTLSPALKAPEKTRETGLSYTEDDKKASPEHRIILRTRIAASKTIDIREERTLTPISGGQRSSVVPSVILKPENIKKRDAKEAKAQNEATSTPHRIRRKSSVLTMNRIRQQLRFLGNSKSDQEEKEILPAAEISDSSSDEEEASTPPLPRRAPRTVSRNLRSSLKSSLHTLTKVPKKSLKPRTPRCAAPQIRSRSLAAQEPASVLEEARLRLHVSAVPESLPCREQEFQDIYNFVESKLLDHTGGCMYISGVPGTGKTATVHEVIRCLQQAAQANDVPPFQYIEVNGMKLTEPHQVYVQILQKLTGQKATANHAAELLAKQFCTRGSPQETTVLLVDELDLLWTHKQDIMYNLFDWPTHKEARLVVLAIANTMDLPERIMMNRVSSRLGLTRMCFQPYTYSQLQQILRSRLKHLKAFEDDAIQLVARKVAALSGDARRCLDICRRATEICEFSQQKPDSPGLVTIAHSMEAVDEMFSSSYITAIKNSSVLEQSFLRAILAEFRRSGLEEATFQQIYSQHVALCRMEGLPYPTMSETMAVCSHLGSCRLLLVEPSRNDLLLRVRLNVSQDDVLYALKDE
notes: origin recognition complex subunit 1; source: U2OS, transiently transfected, in lysate
As usually defined, the stoichiometry N is a count of units in the complex or per binding partner. For the molecule B1, the “stoichiometry N” value with T7-ORCA (full-length) came to 1 Orc1 per ORCA.

B2: Histone H3 (1–15) peptide, K9 mono-methylated, N-terminal cysteine (peptide)
peptide: CARTKQTARK(Me)STGGKA
notes: a cysteine at the N terminus, for coupling to the resin; human histone H3, amino acids 1-15; also called H3K9me1 peptide; source: synthetic peptide (Biomer technology), coupled to SulphoLink resin
For the molecule B2, in the assay with His-ORCA (baculovirus), the binding result is “binds”.

B3: Histone H3 (1–15) peptide, K9 tri-methylated, N-terminal cysteine (peptide)
peptide: CARTKQTARK(Me3)STGGKA
notes: a cysteine at the N terminus, for coupling to the resin; human histone H3, amino acids 1-15; also called H3K9me3 peptide; source: synthetic peptide (Biomer technology), coupled to SulphoLink resin
With B3, the binding result with His-ORCA (baculovirus) is reported as “binds”.

B4: Histone H3 (1–15) peptide, K9 di-methylated, N-terminal cysteine (peptide)
peptide: CARTKQTARK(Me2)STGGKA
notes: a cysteine at the N terminus, for coupling to the resin; human histone H3, amino acids 1-15; also called H3K9me2 peptide; source: synthetic peptide (Biomer technology), coupled to SulphoLink resin
For the molecule B4, the binding result with His-ORCA (baculovirus) is “binds”.

B5: YFP-Suv39H1 (enzyme, UniProt O43463 1-412, looked up)
chain: MAENLKGCSVCCKSSWNQLQDLCRLAKLSCPALGISKRNLYDFEVEYLCDYKKIREQEYYLVKWRGYPDSESTWEPRQNLKCVRILKQFHKDLERELLRRHHRSKTPRHLDPSLANYLVQKAKQRRALRRWEQELNAKRSHLGRITVENEVDLDGPPRAFVYINEYRVGEGITLNQVAVGCECQDCLWAPTGGCCPGASLHKFAYNDQGQVRLRAGLPIYECNSRCRCGYDCPNRVVQKGIRYDLCIFRTDDGRGWGVRTLEKIRKNSFVMEYVGEIITSEEAERRGQIYDRQGATYLFDLDYVEDVYTVDAAYYGNISHFVNHSCDPNLQVYNVFIDNLDERLPRIAFFATRTIRAGEELTFDYNMQVDPVDMESTRMDSNFGLAGLPGSPKKRVRIECKCGTESCRKYLF
notes: Suv39H1; human clones in pEYFP and pSV2-YFP-mSuv39H1 are both named in the methods; source: U2OS, transiently transfected, in lysate
As to B5, the “stoichiometry N” value in the assay with T7-ORCA (full-length) is 1 Suv39H1 per ORCA.
